Data on one molecule can be found in patent US20240043489A1, “Cytokine Prodrugs Comprising a Cleavable Linker” (Trutino Biosciences Inc., priority 2020, published 2024).

The test system of data set [1] is B16F10 melanoma. Description: In vivo efficacy of retention linker IL-2 drugs in B16F10 syngeneic model (Example 17). Details: species or system mice.
Data set [2] has as its target fibronectin (Homo sapiens, UniProt P02751). Description: IL-2 fusion protein plate binding assay to fibronectin. How it is done:
A similar plate-based assay was developed to interrogate binding of IL-2 fusion variants to fibronectin. 96-well plates were coated with 4 ug/mL of fibronectin (Sigma) or control BSA for 18-22 h at room temperature on shaker (350 rpm). After washing, wells are blocked with protein-free blocking buffer (Pierce) for 90 min, then fusion proteins are titrated in blocking buffer-0.1% Tween 20 pH 7.5 and/or pH 6 and added for 1 hr at room temperature with shaking. After washing, an anti-mouse IL-2 biotin-labelled detection antibody (JES6-5H4, ThermoFisher) is added and binding is detected using Ultra Streptavidin HRP (ThermoFisher). The plate was developed by adding the chromogenic tetramethylbenzidine substrate (Ultra TMB, ThermoFisher). The reaction is stopped by addition of 0.5M H2SO4 and the absorbance is read at 450-650 nm.

Data set [3] concerns EMT06. Kind of data set: In vivo efficacy in EMT06 breast syngeneic model. On the set-up: species or system mice. The conditions noted are these: EMT06, BALB/c, 20 mpk IV Q3D, D20. The protocol:
(§1) For the efficacy studies, C57BL/6 or BALB/c mice were subcutaneously inoculated with malignant cells and when the average tumor volume reached on average 90 mm^3, animals were randomized into 2 groups based on tumor volumes (n=10 mice per treatment group). Mice were dosed intravenously every 3 days (Q3D) at 20 mg/kg. Tumors, body weights and clinical observations were measured/collected twice a week for the duration of the study. Tumor volume is shown in FIGS. 10A-D, 11A, 12A, and 13B-C. […] Liver and kidney enzyme results corresponding to FIGS. 11A and 12A are shown in FIGS. 11B-D and 12B-D, respectively.

Data set [4] in a line: In vitro serum stability of fusion protein (sandwich ELISA). Conditions: 37C up to 72 h; serum of naive and MC38 tumor bearing C57BL/6 mice. The format is in vitro ADME. The protocol:
We developed an ELISA assay to detect and quantify fusion proteins comprising IL-2 and IL-2Rα moieties. Wells of a 96-well plate are coated overnight with 100 uL of a rat anti-mouse IL-2 monoclonal antibody (JES6-1A12; ThermoFisher) at […] in PBS. After washing, wells are blocked with TBS/0.05% Tween 20/1% BSA, then fusion proteins and/or unknown biological samples are added for 1 hr at room temperature. After washing, an anti-mouse IL-2Rα biotin-labelled detection antibody (BAF2438, R&D systems) is added and binding is detected using Ultra Strepavidin HRP (ThermoFisher). The ELISA plate was developed by adding the chromogenic tetramethylbenzidine substrate (Ultra TMB, ThermoFisher). The reaction is stopped by addition of 0.5M H2SO4 and the absorbance is read at 450-650 nm.
Construct B was incubated at 37C for up to 72 h with serum collected from 8 weeks old female C57BL/6 naive and MC38 tumor bearing mice respectively (n=2 per serum type, tumor volume >3000 mm3 at time of collection), in order to examine both non-specific cleavage as well as MMP-specific off-target cleavage. Samples were collected at 0 h, 4 h, 8 h, 24 h, 48 h and 72 h and the intact non-MMP cleaved fusion protein was quantified using an in-house developed sandwich ELISA.
In general terms: In an ELISA, binding on a coated surface is turned into a signal by an enzyme label.

Data set [5] deals with CT-26. Description: In vivo efficacy in CT-26 colorectal syngeneic model. On the set-up: species or system mice. Conditions: CT-26, BALB/c, 20 mpk IV Q3D, D13. The protocol:
as §1

The subject of data set [6] is tumor infiltrating immune cells. Kind of data set: Immune cell populations by immunohistochemistry in MC38 tumor samples. The data set is classed as in vivo, mice. The conditions noted are these: MC38 tumors, 10 mg/kg IV Q3D for 21 days. How it is done:
The objective of this study is to evaluate immune targets in tumor samples by IHC. See below for details: • CD4+Foxp3 double immunofluorescence staining • CD8, CD25, CD3, CD4 and CD335 single IHC staining
7 tumor samples were selected from the systemic in vivo efficacy study and formalin-fixed paraffin embedded (FFPE) blocks were prepared following standard embedding process.
FFPE blocks were sectioned with a manual rotary microtome (4 μm thickness/section) and optimized IHC assay protocols for all the antibodies were used. All stained sections were scanned with NanoZoomer-S60 Image system with 40× magnification. High resolution picture for whole section was generated and further analyzed.
Scoring Method: All the images were analyzed with HALO™ Image Analysis platform. The whole slide image was analyzed and necrosis area was excluded. The total cells and IHC positive cells were counted. IHC score is presented as the ratio of the positive cell counts against the total cell numbers within whole section and shown in FIG. 8.

Data set [7] deals with collagen. Kind of data set: IL-2 fusion protein collagen-agarose pulldown (immunoblot quantitation). The data set is classed as binding. How it is done:
To test binding to collagen, a pulldown assay using agarose cross-linked to collagen (Sigma) was performed. IL-2 fusion proteins were incubated with collagen-agarose or control agarose beads for 18-22 h at 4C with gentle rotation in 1% BSA/PBS-0.05% Tween 20. After washing, proteins bound to the beads were eluted by resuspending beads in SDS sample buffer (Life Technologies). Bound proteins were then separated by SDS-PAGE on 4-12% BisTris gradient gel followed by immunoblotting with goat anti-mouse IL-2 polyclonal antibody (AF-402-NA; R&D systems). Donkey Anti-goat RP-conjugated antibody was used for detection (Jackson Immuno Research, West Grove, PA) and the blot was developed using the SuperSignal West Femto Maximum sensitivity detection reagent (ThermoFisher) following the manufacturer's recommendations.

Where “and” joins values, the source holds several entries; their conditions need not be identical. Identical values can stand only once. Entries after “also recorded” stand apart in the source; their conditions may differ.

Chain of fibronectin (P02751 32-2477, species assumed): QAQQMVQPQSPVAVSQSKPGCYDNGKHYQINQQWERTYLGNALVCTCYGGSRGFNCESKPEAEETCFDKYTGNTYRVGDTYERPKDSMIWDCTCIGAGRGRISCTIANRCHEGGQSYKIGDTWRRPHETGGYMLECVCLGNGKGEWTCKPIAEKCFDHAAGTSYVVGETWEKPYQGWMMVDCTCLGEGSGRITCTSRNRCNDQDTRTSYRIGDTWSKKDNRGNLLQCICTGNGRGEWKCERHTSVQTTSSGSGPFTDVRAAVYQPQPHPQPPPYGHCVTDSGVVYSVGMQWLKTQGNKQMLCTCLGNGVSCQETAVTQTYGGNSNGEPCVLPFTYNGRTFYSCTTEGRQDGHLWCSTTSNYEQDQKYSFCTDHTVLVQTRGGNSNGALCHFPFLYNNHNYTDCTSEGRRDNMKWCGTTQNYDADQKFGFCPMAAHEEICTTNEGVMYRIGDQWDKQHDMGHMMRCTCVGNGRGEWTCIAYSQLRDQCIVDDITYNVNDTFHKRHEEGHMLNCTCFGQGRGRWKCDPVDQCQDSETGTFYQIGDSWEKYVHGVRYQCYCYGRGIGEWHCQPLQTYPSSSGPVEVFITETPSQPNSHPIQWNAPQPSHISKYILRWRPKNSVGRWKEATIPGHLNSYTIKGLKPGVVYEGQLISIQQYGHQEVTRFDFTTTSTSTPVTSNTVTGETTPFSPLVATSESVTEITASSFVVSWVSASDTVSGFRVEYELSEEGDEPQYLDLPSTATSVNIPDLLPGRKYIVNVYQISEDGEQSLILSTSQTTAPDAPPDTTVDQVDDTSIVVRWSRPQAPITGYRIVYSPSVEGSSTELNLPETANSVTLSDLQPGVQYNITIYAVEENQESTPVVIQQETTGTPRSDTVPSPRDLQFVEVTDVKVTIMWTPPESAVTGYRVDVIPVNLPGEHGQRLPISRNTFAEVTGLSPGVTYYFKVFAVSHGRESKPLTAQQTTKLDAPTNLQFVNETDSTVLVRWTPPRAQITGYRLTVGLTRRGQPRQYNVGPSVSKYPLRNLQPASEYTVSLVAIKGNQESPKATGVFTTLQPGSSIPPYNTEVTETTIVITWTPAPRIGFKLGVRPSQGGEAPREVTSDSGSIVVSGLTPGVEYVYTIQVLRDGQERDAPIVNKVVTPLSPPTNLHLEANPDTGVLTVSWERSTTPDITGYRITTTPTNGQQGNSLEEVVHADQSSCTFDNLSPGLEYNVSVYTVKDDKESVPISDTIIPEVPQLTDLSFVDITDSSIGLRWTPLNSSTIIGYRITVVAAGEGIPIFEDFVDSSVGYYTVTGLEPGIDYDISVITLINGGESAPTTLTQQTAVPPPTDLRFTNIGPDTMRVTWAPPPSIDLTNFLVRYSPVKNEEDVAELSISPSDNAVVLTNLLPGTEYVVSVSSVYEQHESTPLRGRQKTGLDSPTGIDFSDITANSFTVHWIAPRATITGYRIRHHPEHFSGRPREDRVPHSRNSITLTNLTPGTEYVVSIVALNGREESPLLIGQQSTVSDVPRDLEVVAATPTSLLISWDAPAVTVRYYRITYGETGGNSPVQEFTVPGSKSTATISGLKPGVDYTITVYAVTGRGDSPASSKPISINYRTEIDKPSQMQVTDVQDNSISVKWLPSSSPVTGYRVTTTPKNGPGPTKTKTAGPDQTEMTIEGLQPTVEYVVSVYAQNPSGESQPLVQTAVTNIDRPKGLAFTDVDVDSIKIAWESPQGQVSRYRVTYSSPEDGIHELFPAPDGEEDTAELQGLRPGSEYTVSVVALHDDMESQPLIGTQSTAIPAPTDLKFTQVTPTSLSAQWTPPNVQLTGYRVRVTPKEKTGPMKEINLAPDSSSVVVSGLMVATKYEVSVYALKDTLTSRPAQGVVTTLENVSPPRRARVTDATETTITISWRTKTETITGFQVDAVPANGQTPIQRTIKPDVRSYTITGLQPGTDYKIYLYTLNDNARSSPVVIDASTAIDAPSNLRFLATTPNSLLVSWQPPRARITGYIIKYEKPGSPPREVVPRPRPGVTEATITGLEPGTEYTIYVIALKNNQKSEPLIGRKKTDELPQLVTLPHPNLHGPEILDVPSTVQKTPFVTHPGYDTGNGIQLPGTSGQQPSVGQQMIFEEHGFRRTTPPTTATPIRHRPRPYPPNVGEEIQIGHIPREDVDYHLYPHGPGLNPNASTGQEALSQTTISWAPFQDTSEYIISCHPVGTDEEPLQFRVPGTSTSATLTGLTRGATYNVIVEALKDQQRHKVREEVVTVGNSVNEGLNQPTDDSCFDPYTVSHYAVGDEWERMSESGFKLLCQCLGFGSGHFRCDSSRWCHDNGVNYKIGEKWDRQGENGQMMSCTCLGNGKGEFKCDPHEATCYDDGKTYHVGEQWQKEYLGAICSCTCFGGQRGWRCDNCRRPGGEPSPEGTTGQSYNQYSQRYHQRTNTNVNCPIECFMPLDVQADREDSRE

B1: Construct B: SEQ ID NO 101: m IL2-2x(SG4)-MMPcs1-2x(G4S)-IL2Ralpha-mIgG1 Fc (protein)
chain: APTSSSTSSSTAEAQQQQQQQQQQQQHLEQLLMDLQELLSRMENYRNLKLPRMLTFKFYLPKQATELKDLQCLEDELGPLRHVLDLTQSKSFQLEDAENFISNIRVTVVKLKGSDNTFECQFDDESATVVDFLRRWIAFCQSIISTSPQSGGGGSGGGGGPLGVRGGGGGSGGGGSELCLYDPPEVPNATFKALSYKNGTILNCECKRGFRRLKELVYMRCLGNSWSSNCQCTSNSHDKSRKQVTAQLEHQKEQQTTTDMQKPTQSMHQENLTGHCREPPPWKHEDSKRIYHFVEGQSVHYECIPGYKALQRGPAISICKMKCGKTGWTQPQLTCVDEREHHRFLASEESQGSRNSSPESETSCPITTTDFPQPTETTAMTETFVLTMEYKGCKPCICTVPEVSSVFIFPPKPKDVLTITLTPKVTCVVVDISKDDPEVQFSWFVDDVEVHTAQTQPREEQFNSTFRSVSELPIMHQDWLNGKEFKCRVNSAAFPAPIEKTISKTKGRPKAPQVYTIPPPKEQMAKDKVSLTCMITDFFPEDITVEWQWNGQPAENYKNTQPIMDTDGSYFVYSKLNVQKSNWEAGNTFTCSVLHEGLHNHHTEKSLSHSPGK
As for B1, the “TGI (%) D 15” value in data set [1] (10 mg/kg IV Q3D, 5 doses) is 27% and 27.43%. In addition, in data set [1] (10 mg/kg, Day 20), the “efficacy after a dosing holiday of 7 days” value is reported as “diminished efficacy”. For the same molecule, in data set [1] (10 mg/kg, 7 days following the fifth dose), the “TGI (%) D 20” value worked out at 14.02%. In addition, the “TGI (%) D 13” value in data set [1] (20 mg/kg IV Q3D, 5 doses) was 61% and 61.43%; in data set [1] (40 mg/kg IV Q3D, 5 doses), 58.44%. This molecule also had a TGI in data set [1] (Construct B treated groups regardless of dose (20 and 40 mg/kg)) of approximately 60%. For the same molecule, the “fibronectin binding at acidic pH” value in data set [2] (pH 6) was “No significant binding”. The “fibronectin binding at pH 7.5” value in data set [2] (pH 7.5 (neutral)) is “No significant binding”. The “Max TGI %” value was determined as 43% in data set [3] and 46% in data set [5]. For the same molecule, the “stability of intact fusion protein in serum” value in data set [4] is on record as “stable”. Moreover, in data set [6], the “tumor infiltrating immune cells (IHC score) vs vehicle” value is “Significantly more immune cells of all tested types; also recorded: significant increase in tumor infiltrating immune cells”. In data set [7] (blot quantitation, collagen-agarose bound fraction), this molecule yielded a Bound of 2306. In addition, the Normalized in data set [7] (bound fraction relative to Construct B (fold)) is 1. For the same molecule, in data set [7] (fraction bound to collagen-agarose), the “Bound (% input)” value was found to be 0.3%.
